Experimental data reported in US10501502B2, “Allophycocyanin alpha-subunit evolved labeling proteins (smURFPs)” (The Regents of the University of California, priority 2016, dated 2019).

How the values were obtained:
HT1080 tumor xenografts = experiment: Fluorescence imaging of HT1080 tumor xenografts in vivo; design: species or system mice
Text: HT1080 cells were infected with CMV with smURFP-T2A-mCherry, smURFP-T2A-mCardinal, smURFP, and mCardinal lentiviruses in culture, and expression was verified by fluorescence imaging (FIG. 19a, ≥99% efficiency and FIG. 20a, ≥95% efficiency) using filters described in the previous section. All procedures using mice were approved by UCSD IACUC (#S03172M) and are consistent with the recommendations of the American Veterinary Medical Association. One million HT1080 cells expressing smURFP-T2A-mCherry were injected subcutaneously into the lateral, ventral, and upper right and left quadrant, or smURFP and mCardinal were injected subcutaneously into the lateral, dorsal, and lower right and left quadrant of four 5-week-old athymic nude female mice. Tumors were allowed to grow until ˜0.1-1 cm in diameter (˜2 weeks). Mice were anesthetized with isoflurane (1.5%) at a 2 liter/min flow, injected with ketamine-midazolam (intraperitoneal (IP), 80 mg/kg, 4 mg/kg), placed on a heated pad, and imaged before exogenous BV injection. 250 nmol BV was injected by intravenous (IV) tail vein, and mice were imaged 5, 30, 60, and 120 min after BV injection for smURFP-T2A-mCherry. 250 nmol BV or BVMe2 was injected by intravenous tail vein, and mice were imaged 60 min, 24 h, and 48 h after BV injection for smURFP and mCardinal tumors. Mice were imaged using a Maestro in vivo Imaging System (Cambridge Research & Instrumentation, CRI). FPs were imaged with the following filters: mCherry, EX/EM=590(23)/615LP nm and liquid crystal, 620 nm; mCardinal EX/EM=607(36)645LP nm and liquid crystal, 660 nm; and smURFP EX/EM=620(20)/645LP nm or EX/EM=640(47)/700LP and liquid crystal, 710 nm. […] Tumors were removed, washed 2× in 2 ml DMEM+10% FBS, labeled in 2 ml DMEM+10% FBS+10 μM BV or BVMe2 at 4° C. for 24 h, imaged, labeled in 2 ml DMEM+10% FBS+10 μM BV or BVMe2 at 37° C. for 24 h, and imaged (FIG. 20g).

Escherichia coli = experiment: Fluorescence of FPs expressed in Escherichia coli; assay type: cell-based
Description: TeAPCα gene (codons optimized for Escherichia coli) was made by GenScript. Mutations were placed by random mutagenesis using GeneMorphII Random Mutagenesis Kit (Agilent Technologies). Screens for mutants that fluoresce with PCB or BV were performed by subcloning into a pBAD vector (Life Technologies) that expressed cyanobacteria Synechocystis HO-1 and Synechocystis PcyA genes for PCB production and Synechocystis HO-1 only for BV production, as previously described^34. Libraries were expressed in TOP 10 Electrocompetent Escherichia coli cells (Life Technologies) with addition of 0.2% arabinose to LB agar plates (FPs were constitutively expressed in Escherichia coli). Fluorescence was imaged on plates using a BioSpectrum AC Imaging System (UVP) with EX/EM=628(40)/690(50) nm for FPs+PCB, EX/EM=685(40)/710LP nm for rounds 4 and 5 FPs+BV, and EX/EM=650(13)/690(50) nm for Cy5-like FPs+BV (rounds 6-12). At round 6, 5-10 of the brightest colonies on each plate were combined in LB+0.2% arabinose, grown ˜18 h, mixture of plasmid DNA was purified, and TOP10 cells were transformed and plated on LB agar plates+0.2% arabinose. Fluorescence was screened on plates (as described above), 10-20 of the brightest colonies were screened in liquid culture fluorescence (FIG. 7a-e), plasmid DNA was purified, and DNA was sequenced. The plasmid DNA of 2-3 of the brightest FPs was chosen for mutagenesis for the subsequent round. When choosing DNA for subsequent mutagenesis rounds, genes with increased and/or novel silent DNA mutations were chosen over other DNA that had the same DNA and/or protein sequence of the previous round. Site-specific mutagenesis was performed using QuikChange Lightning Mutagenesis Kit (Agilent Technologies) to create smURFP (C4S mutation) and smURFP C52S.

[1] = In vitro photobleaching of bubbles of purified FP or Cy5 in mineral oil; assay type: physicochemical
Description: EX and EM spectra were obtained using SPEX Fluorolog fluorometer (Horiba). Absorbance spectra were obtained using UV-VIS Spectrophotometer Cary Eclipse (Varian) or UV-2700 (Shimadzu). Quantum yield was determined relative to Cy5. Incorporation rates of BV on 0.5 μM smURFP was performed by addition of smURFP to PBS alone or with 20% fetal bovine serum (FBS) and mixed by pipetting in a quartz cuvette. Chromophore was added last, mixed by pipetting, and fluorescence was recorded using SPEX Fluorolog fluorometer (Horiba). Photobleaching was characterized on bubbles of purified FP or Cy5 within mineral oil using light from a 150 W xenon arc lamp with 100% light through EX/EM=628(40)/680(30) nm for smURFP, TDsmURFP, and Cy5 or EX/EM=665 (45)/725 (50) nm for IFP 1.4 focused with a 40×, 1.2 numerical aperture C-Apochromat oil-immersion lens on a Zeiss Axiovert 200M inverted microscope. Photobleaching times were normalized to reflect an initial illumination intensity producing 1,000 photons per fluorescent molecule per second as previously described^37.

B1: smURFP: small ultra-red fluorescent protein, SEQ ID NO: 13, homodimer, covalently attaches biliverdin (protein)
chain: MKTSEQRVNIATLLTENKKKIVDKASQDLWRRHPDLIAPGGIAFSQRDRALCLRDYGWFLHLITFCLLAGDKGPIESIGLISIREMYNSLGVPVPAMMESIRCLKEASLSLLDEEDANETAPYFDYIIKAMS
modifications: homodimer; biliverdin chromophore; smRUFP Variant Polypeptide
fluorescence change after 250 nmol BV intravenously (HT1080 tumor xenografts; after 2 h): no increase in fluorescence
fold dimmer than mCardinal in vivo (HT1080 tumor xenografts; at 607 nm): ~7.3 fold
fold dimmer than mCardinal in vivo (HT1080 tumor xenografts; at 640 nm): ~4 fold
fluorescence of excised tumors with 10 μM BV or BVMe2 (HT1080 tumor xenografts; ex vivo): enhanced fluorescence
fluorescence in tumor xenografts without exogenous BV (HT1080 tumor xenografts; mouse, in vivo): visible without exogenous BV
loss of fluorescence through the skin (HT1080 tumor xenografts; mouse, in vivo): 25%
fluorescence change after injection of 250 nmol BV or BVMe2 (HT1080 tumor xenografts; smURFP vs mCardinal tumors): no increase in fluorescence in vivo
fluorescence intensity relative to mCherry in vivo (HT1080 tumor xenografts; without exogenous BV): 35%
fluorescence when expressed in E. coli (qualitative) (Escherichia coli): greater than that of infrared FPs IFP1.4 and iRFP713
fold brighter than R1+PCB (Escherichia coli; expressed in E. coli): ~650 fold
in vitro photobleaching t50% ([1]; excitation intensity yielding 1,000 photons per s): 300 s
In vitro photostability t50% ([1]; time to bleach 50% from an initial emission rate of 1,000 photons per s): 300 s
